Measurements from PMC3348108 (The Journal of Experimental Medicine, 2012).
Where no end group is shown, it is not given here.

B1: DBD–Ligase IV (amino acids 1–240) (domain or fragment)
chain: MAASQTSQTVASHVPFADLCSTLERIQKSKGRAEKIRHFREFLDSWRKFHDALHKNHKDVTDSFYPAMRLILPQLERERMAYGIKETMLAKLYIELLNLPRDGKDALKLLNYRTPTGTHGDAGDFAMIAYFVLKPRCLQKGSLTIQQVNDLLDSIASNNSAKRKDLIKKSLLQLITQSSALEQKWLIRMIIKDLKLGVSQQTIFSVFHNDAAELHNVTTDLEKVCRQLHDPSVGLSDISI

Legend:
GST–Artemis C terminus = GST–Artemis C terminus (human, UniProt Q96SD1 386-692); assay: pull-down
Chain of GST–Artemis C terminus (Q96SD1 386-692): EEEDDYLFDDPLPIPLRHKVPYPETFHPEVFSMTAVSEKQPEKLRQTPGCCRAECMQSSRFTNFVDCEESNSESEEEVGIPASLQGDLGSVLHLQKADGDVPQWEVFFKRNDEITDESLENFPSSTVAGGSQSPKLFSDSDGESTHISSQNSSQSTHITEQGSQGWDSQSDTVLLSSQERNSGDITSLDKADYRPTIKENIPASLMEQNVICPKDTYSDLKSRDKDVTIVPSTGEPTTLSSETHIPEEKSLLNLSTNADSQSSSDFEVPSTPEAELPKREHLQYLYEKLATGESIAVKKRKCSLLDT

[1] = target: B1; assay: fluorescence polarisation

Binder	binding result (GST–Artemis C terminus)	Kd [1]
B1	binds	
{FAM}-DVPQWEVFFKR [Ligase IV–interacting human Artemis peptide, WT]		~2.6 µM
